Measured values published in publication PMC4988983.

How the values were obtained:
[1] = target: 2-Cys peroxiredoxin from Anabaena sp. PCC 7120 (Anabaena sp. PCC 7120 (endogenous in Anabaena cells)); assay: non-reducing SDS-PAGE with Western blot; soluble extracts of Anabaena WT and ΔntrC cells treated with H2O2, methyl viologen or high light; dimer and monomer bands of 2-Cys Prx
[2] = target: 2-Cys peroxiredoxin from Anabaena sp. PCC 7120 (Anabaena sp. PCC 7120 (endogenous in Anabaena cells)); assay: SEC; soluble extracts (200 µg total protein) of untreated Anabaena cells (0 h) on Superdex 200 HR 10/30, 50 mM KH2PO4 pH 7.1, 150 mM NaCl, 0.5 ml/min; fractions read by Western blot
[3] = target: NADPH-thioredoxin reductase C from Anabaena sp. PCC 7120 (Anabaena sp. PCC 7120 (endogenous in Anabaena cells)); assay: as above

Work on “2-Cys peroxiredoxin from Anabaena sp. PCC 7120 (enzyme)” yielded a stoichiometry N [1] of 2 and a stoichiometry N [2] of 2.

Work on “NADPH-thioredoxin reductase C from Anabaena sp. PCC 7120 (enzyme)” yielded a stoichiometry N [3] of 2.
